One variant from IntAct's records for PubMed 18772112 can be followed below.

The labels stand for the following.
B1: Catenin beta-1 (Homo sapiens), P35222 (parent)
chain: MATQADLMELDMAMEPDRKAAVSHWQQQSYLDSGIHSGATTTAPSLSGKGNPEEEDVDTSQVLYEWEQGFSQSFTQEQVADIDGQYAMTRAQRVRAAMFPETLDEGMQIPSTQFDAAHPTNVQRLAEPSQMLKHAVVNLINYQDDAELATRAIPELTKLLNDEDQVVVNKAAVMVHQLSKKEASRHAIMRSPQMVSAIVRTMQNTNDVETARCTAGTLHNLSHHREGLLAIFKSGGIPALVKMLGSPVDSVLFYAITTLHNLLLHQEGAKMAVRLAGGLQKMVALLNKTNVKFLAITTDCLQILAYGNQESKLIILASGGPQALVNIMRTYTYEKLLWTTSRVLKVLSVCSSNKPAIVEAGGMQALGLHLTDPSQRLVQNCLWTLRNLSDAATKQEGMEGLLGTLVQLLGSDDINVVTCAAGILSNLTCNNYKNKMMVCQVGGIEALVRTVLRAGDREDITEPAICALRHLTSRHQEAEMAQNAVRLHYGLPVVVKLLHPPSHWPLIKATVGLIRNLALCPANHAPLREQGAIPRLVQLLVRAHQDTQRRTSMGGTQQQFVEGVRMEEIVEGCTGALHILARDVHNRIVIRGLNTIPLFVQLLYSPIENIQRVAAGVLCELAQDKEAAEAIEAEGATAPLTELLHSRNEGVATYAAAVLFRMSEDKPQDYKKRLSVELTSSLFRTEPMAWNETADLGLDIGAQGEPLGYRQDDPSYRSFHSGGYGQDALGMDPMMEHEMGGHHPGADYPVDGLPDLGHAQDLMDGLPPGDSNQLAWFDTDL

Variants of B1 are the subject of this assay. The note with it: with runx3_human RUNX3, Q13761.
runx3_human RUNX3, Q13761, sequence (Q13761 whole entry): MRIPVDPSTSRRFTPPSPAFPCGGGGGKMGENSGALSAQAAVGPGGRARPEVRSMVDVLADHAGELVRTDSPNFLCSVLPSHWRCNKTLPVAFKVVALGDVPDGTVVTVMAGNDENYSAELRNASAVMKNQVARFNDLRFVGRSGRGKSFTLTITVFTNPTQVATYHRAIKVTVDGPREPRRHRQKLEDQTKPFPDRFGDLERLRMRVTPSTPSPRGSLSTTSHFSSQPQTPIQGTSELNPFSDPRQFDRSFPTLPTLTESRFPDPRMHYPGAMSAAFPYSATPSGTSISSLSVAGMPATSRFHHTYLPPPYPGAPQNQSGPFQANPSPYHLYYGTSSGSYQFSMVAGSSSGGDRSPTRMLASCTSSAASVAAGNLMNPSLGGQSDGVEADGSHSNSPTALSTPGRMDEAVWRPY
Regarding S33Y, the “effect of a mutation on the interaction” value is reported as “increasing interaction”.
